Tests used:
Format in all cases: cell-based
[1] = test system: SBE4 responsive element (smad2/3 mediated transcriptional activation); assay: SBE4 responsive element luciferase reporter in NIH-3T3 cells; conditions: transgenic TGF-β3 over-expression vs control GFP retrovirus, 48 hours
Description: (§1) NIH-3T3 cells were transfected with plasmids containing TGF-β responsive elements driving luciferase expression. These cells were then transduced with a retroviral vector expressing TGF-β3. The SBE4 responsive element is specific to TGF-β activation via smad2/3 mediated transcriptional activation. This Smad activation can be further delineated to Smad2 specific transcriptional activation using the ARE responsive element in conjunction with the xenopus Fast-1 transactivator (ARE alone is only Smad2/3 specific). The BMP-specific responsive element activates through Smad1/5/8 activation and should not be responsive to TGF-β3 activity. […] The experiment was conducted as follows:
(§2) NIH-3T3 cells pre-plated at 1×10^6 cells/well and transfected with 10 μg of reporter plasmid by standard Calcium Phosphate precipitation. After 48 hours cells were transduced with either rKat.TGF-β3 or a control rKat.cmvGFP retrovirus. […] After 48 hours luciferase expression was measured in cell lysates. […] Relative luciferase activity was expressed in arbitrary units with respect to total protein measured by standard Bradford assay as by manufacturer's instructions (BioRad, Herts, UK).

[2] = test system: 293T cells transduced with Lenti/CAGA(12)-Luc; assay: Lenti/CAGA(12)-Luc reporter in 293T cells with or without human αvβ3 integrins; conditions: conditioned medium from cells over-expressing TGF-β3
Description: Human embryonic kidney 293T cells stably expressing the human αvβ3 integrins and control 293T cells were transduced with the Lenti/CAGA(12)-Luc vector to generate two transgenic lines. Again, these cells were subjected to conditioned medium from cells either over-expressing TGF-β3 or control cells. In more detail:
Human 293T cells stably transfected with αv and β3 integrin (293Tab) along with 293T controls were a kind gift from Dr. John Olsen, UNC, USA. 293T cells and 293Tabs were transduced with Lenti-CAGA(12)-Luc and human DFs were tranduced with lentivirus either expressing human TGF-β3iresGFP, mutant TGF-β3iresGFP or a GFP control. Cells were cultured for a further 48 hours prior to trypsinisation and mixing of 293 cells and transduced DFs in a 1:1 ratio. Cells were incubated for a further 24 hours in serum containing medium then incubated for 48 hours in serum depleted medium supplemented with ITS+1 (Sigma-Aldrich). Cells were subsequently either FACS analysed, to assess the ratio of 293T cells to DFs, or lysed for the purpose of quantifying the luciferase expression.

[3] = test system: BMP responsive element BRE (Smad1/5/8); assay: BMP responsive element BRE luciferase reporter in NIH-3T3 cells (negative control); conditions: TGF-β3 over-expression
Description: as §1, §2

[4] = test system: MDF-CAGA(12)-Luc cells (Smad2/3 specific transcriptional activation); assay: CAGA(12)-Luc reporter in primary murine dermal fibroblasts; conditions: conditioned medium from TGF-β3 over expressing cells vs GFP control
Procedure: A cell line transgenic for a synthetic TGF-β responsive element driving the firefly luciferase gene was generated from primary mouse dermal fibroblasts. The CAGA(12) Smad Binding Element (SBE) was placed upstream of a minimal promoter and will respond to Smad2/3 specific transcriptional activation. Primary murine dermal fibroblasts (MDF) were transduced with a lentiviral vector containing the CAGA(12)-Luc element. These cells were then incubated in conditioned medium from MDFs transduced with a lentivector expressing either TGF-β3 or GFP. The experiment was carried out as follows:
Murine dermal fibroblasts (MDF) were isolated as previously described by DiPersio et al. (DiPersio, C. M., S. Shah, and R. O. Hynes. 1995. alpha 3A beta 1 integrin localizes to focal contacts in response to diverse extracellular matrix proteins. J Cell Sci 108 (Pt 6):2321-36) and expanded to ˜60% confluence and transduced with a lentivector expressing a luciferase reporter gene under the control of either a smad 2/3-specific CAGA(12) promoter. Lentiviral preps were generated as described in Example 1. […] Relative luciferase activity was expressed in arbitrary units with respect to total protein measured by standard Bradford assay as by manufacturer's instructions (BioRad, Herts, UK).

[5] = test system: ARE responsive element (Smad2/3 specific); assay: ARE responsive element luciferase reporter in NIH-3T3 cells; conditions: TGF-β3 over-expression
Description: as §1, §2

[6] = test system: ARE responsive element with xenopus Fast-1 transactivator (Smad2 specific); assay: ARE/Fast-1 responsive element luciferase reporter in NIH-3T3 cells; conditions: TGF-β3 over-expression
Description: as §1, §2

Smad7 promoter = Smad7 promoter luciferase reporter in NIH-3T3 cells; conditions: TGF-β3 over-expression
Description: as §1, §2

B1: TGF-β3: TGF-β3 over-expressed from a retroviral/lentiviral vector; cells exposed by transduction or conditioned medium (protein, UniProt P10600 301-412, looked up)
Transforming growth factor …: ALDTNYCFRNLEENCCVRPLYIDFRQDLGWKWVHEPKGYYANFCSGPCPYLRSADTTHSTVLGLYNTLNPEASASPCCVPQDLEPLTILYYVGRTPKVEQLSNMVVKSCKCS
In the case of B1, the “upregulation of SBE4 element over controls (luciferase)” value [1] is reported as about 1000 fold, the “luciferase output in αvβ3 expressing cell lines compared to control 293T cells” value [2] is reported as “significantly enhanced” and the “luciferase response of BRE element over controls” value [3] is reported as “did not show a significant response over controls”. The “luciferase response compared to control” value [4] was “significant luciferase response”, the “luciferase response of ARE element over controls” value [5] was “significant responses over controls” and the “luciferase response of ARE/Fast-1 element over controls” value [6] was “significant responses over controls”. For the same molecule, the “luciferase response of Smad7 promoter over controls” value (Smad7 promoter) was “significant responses over controls”.

— patent publication US20100175139A1, “SOMATO[…]” (priority 2007, published 2010)
